Reference: article PMC6615493, “The Role of Iron and Copper on the Oligomerization Dynamics of DR_2577, the Main S-Layer Protein of Deinococcus radiodurans” (Frontiers in Microbiology, 2019)
“And” between values parts separate entries of the source, which are not always exact repeats. Equal values may be shown once.

Target: the molecule itself
Experiment: SEC; Superose 6 10/300GL, 50 µl protein at 0.2 mg/ml, 0.05% β-DDM; 50 mM phosphate (pH >= 7) or 50 mM Na acetate (pH <= 6); control runs, runs with EDTA, at lower pH and with Cu2+; close-to-native conditions

B1: DR_2577, the main S-layer protein of Deinococcus radiodurans (natural protein, UniProt Q9RRB6 23-1167, looked up)
chain: APVSAPQVPALTDVPAGHWAKDAIDRLVSRGVILGYPDGTFRGTQNLTRYEAAIIIARLLDQMRDGETPAGMTAEDMTALQNAIQELAADLAALGVRVSDLEANAVSKDDFARLEARIEEVAAAGGEQGATEALQGQIDDLTARVDEYDALRADVDDNASSIAALNDLTVLLNQDILDLQDRVSAVEAAQADFVQRSDFDALGGRVTTVETRVETVNNSLTGRIAALERNAFSVKPSLTIGYSVSRTSRNFDVDRLFPLNADGTVANNAFTSGGIDTDTGAQRRDFGDFGNASDPVVAGAAGLYGFADGVSYTVYFTDGSTATFDGLNPADYKVPTGKVIDTTKGRNGFGFNNLARYKEGSTDIGISLGFDTSGQFSQVTSGTGGSLFSTAGRLQVNQIDLNFGLVTGLPSDAYVDTNGNGKKDDGEATGRGTYLGSGGTAAILRDPAGNVYRPVFFRFKNATTQFSVGNNPVIVTLGQQQKFYFSDYVFDNNYDGRGDGFTVTVDGSNVPVIGAWKPQIKGVYGSRSGLDGTAEAGYGVYYRGVRAQITPVGTLTAGIHYAQEGRDMFGAAQNTTSTPSDVTTYGADLHGKAFGVELHSEYATSRVRPNTANAAVQTSNAFYARVATRKDNLAFDLNTPAAKFGNDTFGVSLYDLNYRKIDAGYNNVAGISEYGYGSYSRTSAQNIAYNPDTGVTAPFANLDRQAYTDANNDGTSDRNADGTVVATNTKIGQMGFGVKAAANLGPVAIGGYYDTSTGANGDNANRMTEAGGSAKVAYSIFSLRGTYNTLDSNRPQIYRDAAGTQIIGDAKVRRYAVQADVTPGLGLFVGAYYRDVNVNGVRSTTDRGLLGRGYLASSFEPGVGNNAYRTGLRCADNNFGTGTRDIDGVGGVLNPAVNLDQSRTATCFTSYGVEAGHAGDNANALVKDLFFRVGYSRVYVPTTATATTGDFSGSVTYGDARYDRKVGVANVRLAGSFSTTNTQLDSRPAGTRGAVGLIVRTDPLENVPFRPQFNGQVGYYTADNRVAAGNYNANATKYGAGVVLNDFLLPQTKIGVRYDGYMAQNRQYTPFDGDGTQGYFSDANNNRRTNLNGVYVEGAYQDLIFSYGTYTLSQKDLNGVEYGSGINNGQPARGQTFKISYKVNF
notes: DR_2577 (SlpA), main S-layer protein of Deinococcus radiodurans strain R1; The introduction describes it as a homo-hexamer of ~760 kDa (trimer of dimers); the dimers are said (cited work) to be held by intermolecular disulfide bonds; also called SlpA
stoichiometry N: 6 and 2
